Km and kcat data for one protein are collected here from paper PMC8060482, “Identification of an Invertase With High Specific Activity for Raffinose Hydrolysis and Its Application in Soymilk Treatment” (Frontiers in Microbiology, 2021).

Holding throughout (test): released glucose by glucose oxidase method; Michaelis-Menten fit
What all share (assay type): biochemical, Microbacterium trichothecenolyticum

Substrate in series [1]: OC[C@H]1O[C@@](CO)(O[C@H]2O[C@H](CO)[C@@H](O)[C@H](O)[C@H]2O)[C@@H](O)[C@@H]1O
The note with it: 50 mM citrate-phosphate pH 6.5, 35 °C, 5 min, enzyme printed as rInvDz13.

Substrate in series [2]: OC[C@H]1O[C@H](OC[C@H]2O[C@H](OC[C@H]3O[C@H](O[C@]4(CO)O[C@H](CO)[C@@H](O)[C@@H]4O)[C@H](O)[C@@H](O)[C@@H]3O)[C@H](O)[C@@H](O)[C@H]2O)[C@H](O)[C@@H](O)[C@H]1O
The note with it: 50 mM citrate-phosphate pH 6.5, 35 °C, 5 min.

Substrate in series [3]: OC[C@H]1O[C@H](OC[C@H]2O[C@H](O[C@]3(CO)O[C@H](CO)[C@@H](O)[C@@H]3O)[C@H](O)[C@@H](O)[C@@H]2O)[C@H](O)[C@@H](O)[C@H]1O
Particulars: 50 mM citrate-phosphate pH 6.5, 35 °C, 5 min.

B1: InvDz13 (Microbacterium trichothecenolyticum) (protein)
chain: APVAPAAPELQDGPQPTAHTQQAYAPEDDFTAKWTRADARQLKRLSDPTAGSKQNSMPTELTMPAVAQDFPDMSNEQVWVWDSWPLTDENANQYSVNGQEIIFSLVADRNLVFDERHVFAKIGYFYRPAGVPADERPENGGWTYGGLVFDEGVTGKIFPDQSYSHQTQWSGSARISKGGQIKLFFTDVAFYRNEDGSNRKPYDPRIALSVGKVHANKNGVKLTGFDKVTDLLQADGTYYQTGAQNEFFNFRDPFTFEDPAHPGETYMVFEGNSAMPRETATCNEEDLGYREGDPFAESVEQVNASGATYQIGNVGLAKAKNKDLTEWEFLPPLLSANCVTDQTERPQIYMKDGKYYLFTISHRGTFANGIDGPEGVYGFVGDGIRSDYQPMNSGSGLALGNPTNLNFAGGQPFAPDFNQPIGHFQAYSHYVMPGGLVQSFIDTVGTEGDFRRGGTLAPTVKIDIDGASSAVDYAYGDGGLGGYADIPANINVNPGGKVTPLP
notes: natively purified from culture supernatant of strain Dz13 (DEAE-Sepharose, Sephacryl S100); precursor 537 aa, predicted signal peptide 1-35 (secreted enzyme); kinetics of sucrose printed once as rInvDz13, but no recombinant expression described
On to B1, for which the Km (commonly the substrate concentration at which the rate is half of its maximum) in series [1] turned out to be 4.5 ± 0.2 mM; in series [2] it was 65.2 ± 3.07 mM; in series [3], 14.2 ± 0.7 mM. For the same protein, the kcat in series [1] was determined as 504 ± 0.1 s^–1; in series [2] it was 2368.3 ± 7.1 s^–1; in series [3] it was 3944 ± 15.3 s^–1.
